As a reminder, the koff is a measure of how fast the partners let go of each other. What is called kon is the second-order rate constant of association.

In assay [1] the target is human dipeptidyl peptidase 4 ectodomain (hDPP4, residues 39-766) (human) (UniProt P27487). Nature of the assay: SPR; BIAcore T200, 25 °C; […]; 1:1 Langmuir binding model. Background: Surface plasmon resonance follows binding to a sensor surface in real time, without labels.
Assay [2] concerns the target T1, human dipeptidyl peptidase 4 ectodomain (hDPP4, residues 39-766) (human, UniProt P27487 39-766).
T1 construct: also called human DPP4
The description is as above. The following applies: both partners purified.

Chain of human dipeptidyl peptidase 4 ectodomain (hDPP4, residues 39-766) (human) (P27487 39-766): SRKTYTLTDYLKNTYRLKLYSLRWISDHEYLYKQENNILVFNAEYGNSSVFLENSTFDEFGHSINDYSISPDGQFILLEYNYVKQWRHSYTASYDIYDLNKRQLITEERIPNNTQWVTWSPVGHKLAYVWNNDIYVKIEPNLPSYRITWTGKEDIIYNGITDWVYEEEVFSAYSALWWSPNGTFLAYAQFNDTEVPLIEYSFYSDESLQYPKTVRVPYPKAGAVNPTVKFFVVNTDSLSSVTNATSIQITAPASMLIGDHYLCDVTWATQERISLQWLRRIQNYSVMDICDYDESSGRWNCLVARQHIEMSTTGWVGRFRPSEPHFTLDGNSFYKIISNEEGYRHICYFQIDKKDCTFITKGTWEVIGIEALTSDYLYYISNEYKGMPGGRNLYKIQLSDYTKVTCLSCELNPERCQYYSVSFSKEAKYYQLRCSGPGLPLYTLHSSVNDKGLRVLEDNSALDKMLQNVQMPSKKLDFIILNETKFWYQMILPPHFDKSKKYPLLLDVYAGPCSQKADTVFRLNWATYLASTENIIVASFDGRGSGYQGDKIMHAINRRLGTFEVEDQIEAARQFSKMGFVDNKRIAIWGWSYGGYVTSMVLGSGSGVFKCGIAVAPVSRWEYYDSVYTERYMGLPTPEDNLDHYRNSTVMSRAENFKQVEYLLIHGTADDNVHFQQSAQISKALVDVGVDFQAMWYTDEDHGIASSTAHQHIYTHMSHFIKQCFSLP
T1 sequence (P27487 39-766): as above

With “MjHKU4r-CoV-1 spike receptor binding domain (residues 375-614) (domain or fragment)”, in assay [1], the koff stood at 0.00368 s⁻¹ and the kon is 17000 M⁻¹ s⁻¹.

B1: Ty-BatCoV-HKU4 spike receptor binding domain (residues E372-Y611) (domain or fragment)
chain: EASATGTFIEQPNATECDFSPMLTGVAPQVYNFKRLVFSNCNYNLTKLLSLFAVDEFSCNGISPDSIARGCYSTLTVDYFAYPLSMKSYIRPGSAGNIPLYNYKQSFANPTCRVMASVLANVTITKPHAYGYISKCSRLTGANQDVETPLYINPGEYSICRDFSPGGFSEDGQVFKRTLTQFEGGGLLIGVGTRVPMTDNLQMSFIISVQYGTGTDSVCPMLDLGDSLTITNRLGKCVDY
In assay [2], B1 showed an off-rate (koff) of 0.00684 s⁻¹ and an on-rate constant (kon) of 1070 M⁻¹ s⁻¹.

The values above are taken from paper PMC11578449 (PLOS Pathogens, 2024).
